Experimental data from publication PMC5584238.

Molecular target: ectodomain of CD147 (CD147^ECT, residues 22-205), wild type (human) (UniProt P35613)

Substance: ectodomain of CD147 (CD147^ECT, residues 22-205), wild type (from UniProt P35613-2 22-205) (domain or fragment)
- MMP-2 production of fibroblasts co-cultured with K7721-WT cells (full-length WT CD147 on cells) treated with different concentrations of Cu2+ up to 30 uM, gelatin zymography: 2.2 fold
